Three substances from article PMC4148482 can be followed below.

The target of experiment [1] is His-tagged Hsp20 wild type (UniProt O14558). In words: peptide array overlay (IB: His), spot densitometry. Conditions: typical of n = 3; parent: est. 100; read off a plot.
Experiment [2] has as its target Aβ1–42 labelled at the N-terminus with HiLyte Fluor 555 (Aβ555) (human) (UniProt P05067).

In the case of “Aβ1–42 25mer peptide 1 (D1–G25; array spot) A2”, in experiment [1], the percent of parent (% Control (WT)) is 77.
Take “Aβ1–42 25mer peptide 1 (D1–G25; array spot) A21”: in experiment [1], the percent of parent (% Control (WT)) came to 110.
On to “Hsp20 N-terminal 25-mer peptide, S16D variant (in solution)”, for which, in experiment [2], the fold decrease in efficiency in disrupting the formation of Aβ555 fibrils and globular structures (self-quenching), against full-length S16D worked out at 2 fold.
